*1 amine or outer side, *2 acyl side, *3 side chain or, on linkers, in order; H or OH if unused. Where no end group is shown, it is not given here. Side-chain parts run from the residue outwards. [ ]: non-standard residue; d: D form. The star is where a group is joined. C16 diacid = O=C(O)CCCCCCCCCCCCCCC(=O)*; γGlu = O=C(O)[C@H](CCC(=O)[*:2])N[*:1]; NMeI = CC[C@H](C)[C@H](NC)C(=O)O; Api = NC1(C(=O)O)CCNCC1; Hexanoyl = CCCCCC(=O)*; Aib = CC(C)(N)C(=O)O
T1: CRF1R receptor (UniProt P34998 24-415, limits assumed)
T1 sequence (looked up): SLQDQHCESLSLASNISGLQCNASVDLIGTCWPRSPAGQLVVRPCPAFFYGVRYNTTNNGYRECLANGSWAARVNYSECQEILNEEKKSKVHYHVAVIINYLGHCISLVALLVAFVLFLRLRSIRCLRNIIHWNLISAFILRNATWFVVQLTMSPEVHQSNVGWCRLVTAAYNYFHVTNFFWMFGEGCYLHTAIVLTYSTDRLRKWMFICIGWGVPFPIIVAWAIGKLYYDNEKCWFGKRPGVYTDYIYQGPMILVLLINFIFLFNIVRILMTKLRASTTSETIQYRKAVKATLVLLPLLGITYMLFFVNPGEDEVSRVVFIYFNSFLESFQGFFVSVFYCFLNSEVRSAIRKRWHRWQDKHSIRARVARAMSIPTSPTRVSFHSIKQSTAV


Experiments:
[1] = molecular target: T1, CRF1R receptor; test: cell-based or functional assay
[2] = molecular target: human corticotropin-releasing factor 2a (CRF2a receptor) (human), Q13324; test: cell-based or functional assay
Chain of human corticotropin-releasing factor 2a (CRF2a receptor) (human), Q13324 (Q13324 20-411): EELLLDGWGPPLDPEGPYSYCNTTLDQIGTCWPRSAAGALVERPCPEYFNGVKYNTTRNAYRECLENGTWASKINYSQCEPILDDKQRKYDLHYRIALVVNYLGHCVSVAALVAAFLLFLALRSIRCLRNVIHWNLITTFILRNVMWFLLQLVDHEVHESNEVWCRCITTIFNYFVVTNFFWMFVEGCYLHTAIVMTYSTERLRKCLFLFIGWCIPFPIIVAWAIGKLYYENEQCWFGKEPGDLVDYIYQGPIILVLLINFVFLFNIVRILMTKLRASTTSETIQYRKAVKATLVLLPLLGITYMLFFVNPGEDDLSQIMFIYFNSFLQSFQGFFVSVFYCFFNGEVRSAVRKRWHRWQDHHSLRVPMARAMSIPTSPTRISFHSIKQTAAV

Row | Binder | Emax (% I) [1] | EC50 [nM] (cAMP) [2] | EC50 [1]
1 | [NMeI]VLSLD[dV]PIKLK([γGlu-C16 diacid])KILLEQEKQK[Aib]QREQAETN[Aib]QILAQV-NH2 (N-terminus assumed; SMILES CC[C@H](C)[C@H](NC)C(=O)N[C@H](C(=O)N[C@@H](CC(C)C)C(=O)N[C@@H](CO)C(=O)N[C@@H](CC(C)C)C(=O)N[C@@H](CC(=O)O)C(=O)N[C@@H](C(=O)N1CCC[C@H]1C(=O)N[C@H](C(=O)N[C@@H](CCCCN)C(=O)N[C@@H](CC(C)C)C(=O)N[C@@H](CCCCNC(=O)CC[C@H](NC(=O)CCCCCCCCCCCCCCC(=O)O)C(=O)O)C(=O)N[C@@H](CCCCN)C(=O)N[C@H](C(=O)N[C@@H](CC(C)C)C(=O)N[C@@H](CC(C)C)C(=O)N[C@@H](CCC(=O)O)C(=O)N[C@@H](CCC(N)=O)C(=O)N[C@@H](CCC(=O)O)C(=O)N[C@@H](CCCCN)C(=O)N[C@@H](CCC(N)=O)C(=O)N[C@@H](CCCCN)C(=O)NC(C)(C)C(=O)N[C@@H](CCC(N)=O)C(=O)N[C@@H](CCCNC(=N)N)C(=O)N[C@@H](CCC(=O)O)C(=O)N[C@@H](CCC(N)=O)C(=O)N[C@@H](C)C(=O)N[C@@H](CCC(=O)O)C(=O)N[C@H](C(=O)N[C@@H](CC(N)=O)C(=O)NC(C)(C)C(=O)N[C@@H](CCC(N)=O)C(=O)N[C@H](C(=O)N[C@@H](CC(C)C)C(=O)N[C@@H](C)C(=O)N[C@@H](CCC(N)=O)C(=O)N[C@H](C(N)=O)C(C)C)[C@@H](C)CC)[C@@H](C)O)[C@@H](C)CC)[C@@H](C)CC)C(C)C)C(C)C) [SEQ ID NO 75] | 3% | 0.19 nM | 
2 | [NMeI]VLSLD[dV]PIKLK([γGlu-C16 diacid])KILLEQEKQK[Aib]QREQAETN[Api]QILAQV-NH2 (N-terminus assumed; SMILES CC[C@H](C)[C@H](NC)C(=O)N[C@H](C(=O)N[C@@H](CC(C)C)C(=O)N[C@@H](CO)C(=O)N[C@@H](CC(C)C)C(=O)N[C@@H](CC(=O)O)C(=O)N[C@@H](C(=O)N1CCC[C@H]1C(=O)N[C@H](C(=O)N[C@@H](CCCCN)C(=O)N[C@@H](CC(C)C)C(=O)N[C@@H](CCCCNC(=O)CC[C@H](NC(=O)CCCCCCCCCCCCCCC(=O)O)C(=O)O)C(=O)N[C@@H](CCCCN)C(=O)N[C@H](C(=O)N[C@@H](CC(C)C)C(=O)N[C@@H](CC(C)C)C(=O)N[C@@H](CCC(=O)O)C(=O)N[C@@H](CCC(N)=O)C(=O)N[C@@H](CCC(=O)O)C(=O)N[C@@H](CCCCN)C(=O)N[C@@H](CCC(N)=O)C(=O)N[C@@H](CCCCN)C(=O)NC(C)(C)C(=O)N[C@@H](CCC(N)=O)C(=O)N[C@@H](CCCNC(=N)N)C(=O)N[C@@H](CCC(=O)O)C(=O)N[C@@H](CCC(N)=O)C(=O)N[C@@H](C)C(=O)N[C@@H](CCC(=O)O)C(=O)N[C@H](C(=O)N[C@@H](CC(N)=O)C(=O)NC1(C(=O)N[C@@H](CCC(N)=O)C(=O)N[C@H](C(=O)N[C@@H](CC(C)C)C(=O)N[C@@H](C)C(=O)N[C@@H](CCC(N)=O)C(=O)N[C@H](C(N)=O)C(C)C)[C@@H](C)CC)CCNCC1)[C@@H](C)O)[C@@H](C)CC)[C@@H](C)CC)C(C)C)C(C)C) [SEQ ID NO 155] | 26% | 0.51 nM | 
3 | Ac-IVLSLD[dV]PIKLK([γGlu-C16 diacid])KILLEQEKQKAQREQAETN[Api]QILAQV-NH2 (SMILES CC[C@H](C)[C@H](NC(C)=O)C(=O)N[C@H](C(=O)N[C@@H](CC(C)C)C(=O)N[C@@H](CO)C(=O)N[C@@H](CC(C)C)C(=O)N[C@@H](CC(=O)O)C(=O)N[C@@H](C(=O)N1CCC[C@H]1C(=O)N[C@H](C(=O)N[C@@H](CCCCN)C(=O)N[C@@H](CC(C)C)C(=O)N[C@@H](CCCCNC(=O)CC[C@H](NC(=O)CCCCCCCCCCCCCCC(=O)O)C(=O)O)C(=O)N[C@@H](CCCCN)C(=O)N[C@H](C(=O)N[C@@H](CC(C)C)C(=O)N[C@@H](CC(C)C)C(=O)N[C@@H](CCC(=O)O)C(=O)N[C@@H](CCC(N)=O)C(=O)N[C@@H](CCC(=O)O)C(=O)N[C@@H](CCCCN)C(=O)N[C@@H](CCC(N)=O)C(=O)N[C@@H](CCCCN)C(=O)N[C@@H](C)C(=O)N[C@@H](CCC(N)=O)C(=O)N[C@@H](CCCNC(=N)N)C(=O)N[C@@H](CCC(=O)O)C(=O)N[C@@H](CCC(N)=O)C(=O)N[C@@H](C)C(=O)N[C@@H](CCC(=O)O)C(=O)N[C@H](C(=O)N[C@@H](CC(N)=O)C(=O)NC1(C(=O)N[C@@H](CCC(N)=O)C(=O)N[C@H](C(=O)N[C@@H](CC(C)C)C(=O)N[C@@H](C)C(=O)N[C@@H](CCC(N)=O)C(=O)N[C@H](C(N)=O)C(C)C)[C@@H](C)CC)CCNCC1)[C@@H](C)O)[C@@H](C)CC)[C@@H](C)CC)C(C)C)C(C)C) [SEQ ID NO 152] | 25% | 0.51 nM | 
4 | Ac-IVLSLD[dV]PIKLK([γGlu-C16 diacid])KILLEQEKQK[Aib]QREQAETN[Api]QILAQV-NH2 (SMILES CC[C@H](C)[C@H](NC(C)=O)C(=O)N[C@H](C(=O)N[C@@H](CC(C)C)C(=O)N[C@@H](CO)C(=O)N[C@@H](CC(C)C)C(=O)N[C@@H](CC(=O)O)C(=O)N[C@@H](C(=O)N1CCC[C@H]1C(=O)N[C@H](C(=O)N[C@@H](CCCCN)C(=O)N[C@@H](CC(C)C)C(=O)N[C@@H](CCCCNC(=O)CC[C@H](NC(=O)CCCCCCCCCCCCCCC(=O)O)C(=O)O)C(=O)N[C@@H](CCCCN)C(=O)N[C@H](C(=O)N[C@@H](CC(C)C)C(=O)N[C@@H](CC(C)C)C(=O)N[C@@H](CCC(=O)O)C(=O)N[C@@H](CCC(N)=O)C(=O)N[C@@H](CCC(=O)O)C(=O)N[C@@H](CCCCN)C(=O)N[C@@H](CCC(N)=O)C(=O)N[C@@H](CCCCN)C(=O)NC(C)(C)C(=O)N[C@@H](CCC(N)=O)C(=O)N[C@@H](CCCNC(=N)N)C(=O)N[C@@H](CCC(=O)O)C(=O)N[C@@H](CCC(N)=O)C(=O)N[C@@H](C)C(=O)N[C@@H](CCC(=O)O)C(=O)N[C@H](C(=O)N[C@@H](CC(N)=O)C(=O)NC1(C(=O)N[C@@H](CCC(N)=O)C(=O)N[C@H](C(=O)N[C@@H](CC(C)C)C(=O)N[C@@H](C)C(=O)N[C@@H](CCC(N)=O)C(=O)N[C@H](C(N)=O)C(C)C)[C@@H](C)CC)CCNCC1)[C@@H](C)O)[C@@H](C)CC)[C@@H](C)CC)C(C)C)C(C)C) [SEQ ID NO 153] | 22% | 0.41 nM | 
5 | VLSLD[dV]PIKLK([γGlu-C16 diacid])QILLKQERQKKQREQAEKNKQILEQV-NH2 [SEQ ID NO 4] | 4% | 0.44 nM | > 250 nM
6 | Hexanoyl-VLSLD[dV]PIKLK([γGlu-C16 diacid])KILLEQEKQKKQREQAETN[Aib]QILAQV-NH2 (SMILES CCCCCC(=O)N[C@H](C(=O)N[C@@H](CC(C)C)C(=O)N[C@@H](CO)C(=O)N[C@@H](CC(C)C)C(=O)N[C@@H](CC(=O)O)C(=O)N[C@@H](C(=O)N1CCC[C@H]1C(=O)N[C@H](C(=O)N[C@@H](CCCCN)C(=O)N[C@@H](CC(C)C)C(=O)N[C@@H](CCCCNC(=O)CC[C@H](NC(=O)CCCCCCCCCCCCCCC(=O)O)C(=O)O)C(=O)N[C@@H](CCCCN)C(=O)N[C@H](C(=O)N[C@@H](CC(C)C)C(=O)N[C@@H](CC(C)C)C(=O)N[C@@H](CCC(=O)O)C(=O)N[C@@H](CCC(N)=O)C(=O)N[C@@H](CCC(=O)O)C(=O)N[C@@H](CCCCN)C(=O)N[C@@H](CCC(N)=O)C(=O)N[C@@H](CCCCN)C(=O)N[C@@H](CCCCN)C(=O)N[C@@H](CCC(N)=O)C(=O)N[C@@H](CCCNC(=N)N)C(=O)N[C@@H](CCC(=O)O)C(=O)N[C@@H](CCC(N)=O)C(=O)N[C@@H](C)C(=O)N[C@@H](CCC(=O)O)C(=O)N[C@H](C(=O)N[C@@H](CC(N)=O)C(=O)NC(C)(C)C(=O)N[C@@H](CCC(N)=O)C(=O)N[C@H](C(=O)N[C@@H](CC(C)C)C(=O)N[C@@H](C)C(=O)N[C@@H](CCC(N)=O)C(=O)N[C@H](C(N)=O)C(C)C)[C@@H](C)CC)[C@@H](C)O)[C@@H](C)CC)[C@@H](C)CC)C(C)C)C(C)C) [SEQ ID NO 156] | 8% | 0.29 nM | 
7 | [NMeI]VLSLD[dV]PIKLK([γGlu-C16 diacid])KILLEQEKQKAQREQAETN[Api]QILAQV-NH2 (N-terminus assumed; SMILES CC[C@H](C)[C@H](NC)C(=O)N[C@H](C(=O)N[C@@H](CC(C)C)C(=O)N[C@@H](CO)C(=O)N[C@@H](CC(C)C)C(=O)N[C@@H](CC(=O)O)C(=O)N[C@@H](C(=O)N1CCC[C@H]1C(=O)N[C@H](C(=O)N[C@@H](CCCCN)C(=O)N[C@@H](CC(C)C)C(=O)N[C@@H](CCCCNC(=O)CC[C@H](NC(=O)CCCCCCCCCCCCCCC(=O)O)C(=O)O)C(=O)N[C@@H](CCCCN)C(=O)N[C@H](C(=O)N[C@@H](CC(C)C)C(=O)N[C@@H](CC(C)C)C(=O)N[C@@H](CCC(=O)O)C(=O)N[C@@H](CCC(N)=O)C(=O)N[C@@H](CCC(=O)O)C(=O)N[C@@H](CCCCN)C(=O)N[C@@H](CCC(N)=O)C(=O)N[C@@H](CCCCN)C(=O)N[C@@H](C)C(=O)N[C@@H](CCC(N)=O)C(=O)N[C@@H](CCCNC(=N)N)C(=O)N[C@@H](CCC(=O)O)C(=O)N[C@@H](CCC(N)=O)C(=O)N[C@@H](C)C(=O)N[C@@H](CCC(=O)O)C(=O)N[C@H](C(=O)N[C@@H](CC(N)=O)C(=O)NC1(C(=O)N[C@@H](CCC(N)=O)C(=O)N[C@H](C(=O)N[C@@H](CC(C)C)C(=O)N[C@@H](C)C(=O)N[C@@H](CCC(N)=O)C(=O)N[C@H](C(N)=O)C(C)C)[C@@H](C)CC)CCNCC1)[C@@H](C)O)[C@@H](C)CC)[C@@H](C)CC)C(C)C)C(C)C) [SEQ ID NO 154] | 24% | 0.52 nM | 
